Measurements reported in publication PMC6090299, “Quantitative Analysis of Interaction Between CADM1 and Its Binding Cell-Surface Proteins Using Surface Plasmon Resonance Imaging” (Frontiers in Cell and Developmental Biology, 2018).

T1: CADM4-Fc (human (by the printed RefSeq entry))
T1 sequence (Q8NFZ8 whole entry, looked up): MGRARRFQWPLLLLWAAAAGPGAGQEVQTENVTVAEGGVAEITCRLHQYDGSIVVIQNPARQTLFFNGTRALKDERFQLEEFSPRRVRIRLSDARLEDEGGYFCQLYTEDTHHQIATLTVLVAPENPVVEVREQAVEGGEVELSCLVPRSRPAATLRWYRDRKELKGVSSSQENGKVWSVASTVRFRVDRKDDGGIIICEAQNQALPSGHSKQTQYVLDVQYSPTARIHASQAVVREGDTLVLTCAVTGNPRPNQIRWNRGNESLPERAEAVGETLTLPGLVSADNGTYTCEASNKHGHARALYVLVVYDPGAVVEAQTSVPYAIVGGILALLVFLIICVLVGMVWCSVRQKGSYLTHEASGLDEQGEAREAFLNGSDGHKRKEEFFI

T2: CADM2-Fc (human (by the printed RefSeq entry), UniProt Q8N3J6-1 25-367)
T2 construct: signal peptide in the construct; CADM2 extracellular domain, NP_001161146, 1-367 a.a; Human IgG2-Fc fragment from pFUSE-hIgG2-Fc1; source: FreeStyle 293-F cells, transiently transfected, purified from the supernatant (Protein G Sepharose); not shown: Fc (human IgG2), C-terminal, kept
T2 sequence (looked up): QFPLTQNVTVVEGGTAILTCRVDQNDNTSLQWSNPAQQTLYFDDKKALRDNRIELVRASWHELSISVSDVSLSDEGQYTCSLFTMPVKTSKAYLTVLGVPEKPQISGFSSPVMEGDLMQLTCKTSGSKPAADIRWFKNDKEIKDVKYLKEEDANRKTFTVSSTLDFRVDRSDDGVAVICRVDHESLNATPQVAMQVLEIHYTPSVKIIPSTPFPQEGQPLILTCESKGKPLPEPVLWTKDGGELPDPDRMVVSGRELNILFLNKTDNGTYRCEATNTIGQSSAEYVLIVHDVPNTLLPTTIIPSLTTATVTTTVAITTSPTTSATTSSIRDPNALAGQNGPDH

B1: CADM1-Fc (Fc fusion, human (by the printed RefSeq entry), UniProt Q9BY67-1 45-374, looked up)
chain: QNLFTKDVTVIEGEVATISCQVNKSDDSVIQLLNPNRQTIYFRDFRPLKDSRFQLLNFSSSELKVSLTNVSISDEGRYFCQLYTDPPQESYTTITVLVPPRNLMIDIQKDTAVEGEEIEVNCTAMASKPATTIRWFKGNTELKGKSEVEEWSDMYTVTSQLMLKVHKEDDGVPVICQVEHPAVTGNLQTQRYLEVQYKPQVHIQMTYPLQGLTREGDALELTCEAIGKPQPVMVTWVRVDDEMPQHAVLSGPNLFINNLNKTDNGTYRCEASNIVGKAHSDYMLYVYDPPTTIPPPTTTTTTTTTTTTTILTIITDSRAGEEGSIRAVDH
notes: signal peptide in the construct; CADM1 extracellular domain, NP_055148, 1-374 a.a; Human IgG2-Fc fragment from pFUSE-hIgG2-Fc1; Glycosylated; also called cell adhesion molecule 1 extracellular domain fused with Fc; source: FreeStyle 293-F cells, transiently transfected, purified from the supernatant (Protein G Sepharose); not shown: Fc (human IgG2), C-terminal, kept
B2: CADM3-Fc (Fc fusion, human (by the printed RefSeq entry), UniProt Q8N126-1 25-330, looked up)
chain: NLSQDDSQPWTSDETVVAGGTVVLKCQVKDHEDSSLQWSNPAQQTLYFGEKRALRDNRIQLVTSTPHELSISISNVALADEGEYTCSIFTMPVRTAKSLVTVLGIPQKPIITGYKSSLREKDTATLNCQSSGSKPAARLTWRKGDQELHGEPTRIQEDPNGKTFTVSSSVTFQVTREDDGASIVCSVNHESLKGADRSTSQRIEVLYTPTAMIRPDPPHPREGQKLLLHCEGRGNPVPQQYLWEKEGSVPPLKMTQESALIFPFLNKSDSGTYGCTATSNMGSYKAYYTLNVNDPSPVPSSSSTYH
notes: signal peptide in the construct; CADM3 extracellular domain, NP_001120645, 1-330 a.a; Human IgG2-Fc fragment from pFUSE-hIgG2-Fc1; source: FreeStyle 293-F cells, transiently transfected, purified from the supernatant (Protein G Sepharose); not shown: Fc (human IgG2), C-terminal, kept

Tests used:
[1] = target: T1, CADM4-Fc (human (by the printed RefSeq entry)); experiment: SPR; SPR imaging (OpenPlex); the 10 IgSF-Fc proteins (7-24 μM) spotted in hexaplicate and immobilised by amine coupling; 2.4 μM CADM1-Fc injected for 4 min; 25°C; PBS with 0.2% BSA and 0.02% Tween20, 50 μL/min; signal of normal human IgG subtracted
CADM2-Fc = target: T2, CADM2-Fc; experiment: as above; settings: both partners purified
[2] = target: the molecule itself; experiment: as above
[3] = target: the molecule itself; experiment: SPR; SPR imaging (OpenPlex); the 10 IgSF-Fc proteins spotted and immobilised by amine coupling; CADM2-Fc, CADM3-Fc or CADM4-Fc injected as analyte; 25°C; PBS with 0.2% BSA and 0.02% Tween20, 50 μL/min
CADM1-Fc = target: B1; experiment: SPR; SPR imaging (OpenPlex); the 10 IgSF-Fc proteins (7-24 μM) spotted in hexaplicate and immobilised by amine coupling; 2.4 μM CADM1-Fc injected for 4 min; 25°C; PBS with 0.2% BSA and 0.02% Tween20, 50 μL/min; signal of normal human IgG subtracted; settings: both partners purified

Row | Kd [1] | koff [1] | kon [1] | Kd (CADM2-Fc) | koff (CADM2-Fc) | kon (CADM2-Fc) | Kd (CADM1-Fc) | koff (CADM1-Fc) | kon (CADM1-Fc) | Binder | Kd [2] | koff [2] | kon [2] | binding result [3]
1 | 193 nM | 0.019 s⁻¹ | 99000 M⁻¹ s⁻¹ | 86.8 nM | 0.0064 s⁻¹ | 74000 M⁻¹ s⁻¹ | – | – | – | B1 | 114 nM | 0.0073 s⁻¹ | 64000 M⁻¹ s⁻¹ | –
2 | – | – | – | – | – | – | 80.1 nM | 0.007 s⁻¹ | 84000 M⁻¹ s⁻¹ | B2 | – | – | – | binds
